{"source": "patent US7015022B2", "about": "“Mammalian catalase-dependent oxidation processes and methods for stimulating oxidative activities” (University of Medicine & Dentistry of New Jersey, priority 2002, dated 2006)", "proteins": {"B1": {"name": "mammalian catalase (Bos taurus) (protein)", "chain": "ADNRDPASDQMKHWKEQRAAQKPDVLTTGGGNPVGDKLNSLTVGPRGPLLVQDVVFTDEMAHFDRERIPERVVHAKGAGAFGYFEVTHDITRYSKAKVFEHIGKRTPIAVRFSTVAGESGSADTVRDPRGFAVKFYTEDGNWDLVGNNTPIFFIRDALLFPSFIHSQKRNPQTHLKDPDMVWDFWSLRPESLHQVSFLFSDRGIPDGHRHMNGYGSHTFKLVNANGEAVYCKFHYKTDQGIKNLSVEDAARLAHEDPDYGLRDLFNAIATGNYPSWTLYIQVMTFSEAEIFPFNPFDLTKVWPHGDYPLIPVGKLVLNRNPVNYFAEVEQLAFDPSNMPPGIEPSPDKMLQGRLFAYPDTHRHRLGPNYLQIPVNCPYRARVANYQRDGPMCMMDNQGGAPNYYPNSFSAPEHQPSALEHRTHFSGDVQRFNSANDDNVTQVRTFYLKVLNEEQRKRLCENIAGHLKDAQLFIQKKAVKNFSDVHPEYGSRIQALLDKYNEEKPKNAVHTYVQHGSHLSAREKANL", "notes": "purified catalases obtained from a variety of sources including enzyme from mouse and bovine liver; purchased Sigma Chemical Co., St. Louis, Mo; host or cells: liver tissue (mouse and bovine named)"}}, "substrate": "CC(=O)N1c2ccc(O)cc2Oc2cc(O)ccc21", "assay": "Catalase-dependent oxidation of AMPLEX-RED to resorufin in the absence of hydrogen peroxide (Lineweaver-Burke enzyme kinetics)", "format": "biochemical, bovine", "settings": "other: Lineweaver-Burke analysis, catalase 1 mg/ml, 50 mM phosphate buffer pH 7.4, room temperature, no hydrogen peroxide", "procedure": "Reactions were carried out in buffer consisting of 50 mM phosphate buffer, pH 7.4 and 1.0 mg/ml of the catalase at room temperature (22° C.) in a reaction volume of 0.1 ml. […] Standard reaction mixtures contain 20 nmoles of the substrate. Detection of the fluorescent product resorufin was measured using an HTS 7000 Plus Bio Assay Reader (Perkin Elmer, Beaconsfield, Buckinghamsire, UK) using a 540 nm excitation filter and a 595 nm emission filter.", "data": [{"protein": "B1", "values": [{"measurement": "Km", "result": 244, "unit": "µM"}, {"measurement": "Vmax", "result": "4.74e-05", "unit": "M/s"}]}]}
